The numbers were not newly measured in US20200306346A1 (ADOCIA, priority 2017, published 2020), which cites them from elsewhere.

The test system of data set [1] is mammalian cells in culture.
Data set [2] relates to patients. Particulars: in vivo.

As for “fibrillated human glucagon: "potentially dangerous nature of these fibrils: fibrillated human glucagon being cytotoxic in mammalian cells in culture"”, the cytotoxicity result in data set [1] is recorded as “cytotoxic”.
For the substance pegnivacogin, the “inflammatory responses at the first dose” value in data set [2] was 3 out of 640.
